B1: TP53-binding protein 1 (Mus musculus), P70399-1 (parent)
chain: MPGEQMDPTGSQLDSDFSQQDTPCLIIEDSQPESQVLEEDAGSHFSVLSRHLPNLQMHKENPVLDIVSNPEQSAVEQGDSNSSFNEHLKEKKASDPVESSHLGTSGSISQVIERLPQPNRTSSALAVTVEAASLPEEEKEEEELEEEKEGVGANAPGADSLAAEDSASSQLGFGVLELSQSQDVEEHTVPYDVNQEHLQLVTTNSGSSPLSDVDASTAIKCEEQPTEDIAMIEQPSKDIPVTVQPGKGIHVVEEQNLPLVRSEDRPSSPQVSVAAVETKEQVPARELLEEGPQVQPSSEPEVSSTQEDLFDQSSKTASDGCSTPSREEGGCSPVSTPATTLQLLQLSGQKPLVQESLSTNSSDLVAPSPDAFRSTPFIVPSSPTEQGGRKDEPMDMSVIPVGGEPFQKLHDDEAMETEKPLLPSQPAVSPQASTPVSRSTPVFTPGSLPIPSQPEFSHDIFIPSPSLEEPSDDVKKGGGLHSSSLTVECSKTSESEPKNFTDDLGLSMTGDSCKLMLSTSEYSQSSKMESLGSPRTEEDRENTQIDDTEPLSPVSNSKLPADSENVLVTPSQDDQVEMSQNVDKAKEDETEDRGDCKGREDAVAEDVCIDLTCDSGSQAVPSPATRSEALSSVLDQEEAMDTKEHHPEEGFSGSEVEEVPETPCGSHREEPKEEPMESIPLHLSLTETQSEALCLQKEAPKEECPEAMEVETSVISIDSPQKLQVLDQELEHKDPDTWEEATSEDSSVVIVDVKEPSPRADVSCEPLEEVEKCSDSQSWEGVAPEEEPCAENRLDTPEEKRIECDGDSKAETTEKDAVTEDSPQPPLPSVRDEPVRPDQETQQPQVQEKESPVTVDAEVADDKQLGPEGACQQLEKAPACASQSFCESSSETPFHFTLPKEGDIIPPLTGATPPLIGHLKLEPKRHSTPIGISNYPESTIATSDVTSESMVEINDPLLGNEKGDSESAPEMDGKLSLKMKLVSPETEASEESLQFSLEKPTTAERKNGSTAIAEPVASLQKPVPVFGCIYEAQQEKEAQSEAPPSAPDRANLLHFPSAQEEDKERPDVTPKLRQSEQPVKPVGPVMDDAAPEDSASPVSQQRASQEQRASQEPFSPAEDVMETDLLEGLAANQDRPSKMLMDRPTQSNIGIQTVDHSLCAPETVSAATQTVKSVCEQGTSTAEQNSGKQDATVQTERGSGEKPASAPVDDTESLHSQGEEEFEMPQPPHGHVLHRHMRTIREVRTLVTRVITDVYYVDGTEVERKVTEETEEPIVECQECETEVSPSQTGGSSGDLGDISSFSSKASSSHHTSSGTSLSAIHSSGSSGRGAGPLKGKASGTEAADFALPSSRGGPGKLSPRKGISQTGAPVCEEDGDAGLGIRQGGKAPVTPRGRGRRGRPPSRTTGTRETVVSGPLGVEDISPSMSPDDKSFTRIMPRVPDSTKRTDASSSTLRRSDSPEIPFQAATGSSDGLDSSSSGNSFVGLRVVAKWSSNGYFYSGKITRDVGAGKYKLLFDDGYECDVLGKDILLCDPIPLDTEVTALSEDEYFSAGVVKGHRKESGELYYSIEKEGQRKWYKRMAVILSLEQGNRLREQYGLGPYEAVTPLTKAADISLDNLVEGKRKRRSNISSPVTPTAASSSSTTPTRKATESPRASTGVPSGKRKLPTSEEERSPAKRGRKSATVKPGTVGAAEFVSPCETGDNIGEPSVLEEPRGPLPLNKTLFLGYAFLLTMATTSDKLASRSKLLDGPTGSSEEEEEFLEIPPFNKQYTECQLRAGAGYILEDFNEAQCNTAYQCLLIADQHCRTRKYFLCLASGIPCVSHVWVHDSCHANQLQNYRNYLLPAGYSLEEQRILDWQPRENPFQNLKVLLVSDQQQNFLELWSEILMTGGAASVKQHHSSAHNKDIALGVFDVVVTDPSCPASVLKCAEALQLPVVSQEWVIQCLIVGERIGFKQHPKYKHDYVSH

Variants of: B1
Settings: with plk1_human PLK1, P53350
Sequence of plk1_human PLK1, P53350 (P53350 whole entry): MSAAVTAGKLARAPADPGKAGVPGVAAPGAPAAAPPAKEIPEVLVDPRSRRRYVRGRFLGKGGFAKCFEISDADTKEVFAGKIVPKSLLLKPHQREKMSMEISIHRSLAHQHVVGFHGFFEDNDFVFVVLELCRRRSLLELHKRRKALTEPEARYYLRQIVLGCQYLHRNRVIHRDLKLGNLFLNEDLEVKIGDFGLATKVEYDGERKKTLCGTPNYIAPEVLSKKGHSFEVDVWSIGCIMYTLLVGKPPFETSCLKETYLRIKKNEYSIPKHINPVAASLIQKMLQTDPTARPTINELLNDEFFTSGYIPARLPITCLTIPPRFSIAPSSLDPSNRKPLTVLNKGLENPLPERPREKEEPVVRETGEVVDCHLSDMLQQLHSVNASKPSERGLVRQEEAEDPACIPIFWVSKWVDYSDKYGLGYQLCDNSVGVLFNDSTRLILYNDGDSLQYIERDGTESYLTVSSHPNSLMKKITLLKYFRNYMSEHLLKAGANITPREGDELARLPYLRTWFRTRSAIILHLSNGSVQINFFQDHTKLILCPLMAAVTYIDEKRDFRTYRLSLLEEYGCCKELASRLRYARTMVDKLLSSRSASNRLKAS

| Variant | effect of a mutation on the interaction |
| --- | --- |
| S382A | disrupting interaction |

From IntAct's records for PubMed 20126263
